Experimental data taken from patent US20250297032A1 (CONCEPT TO MEDICINE BIOTECH, published 2025).

Columns and labels:
[1] = target: T1, human FAPα-His tag (Sino biological) (human, UniProt Q12884 26-760); experiment: competitive ELISA on coated human FAPα; competitor (detected): FAP-J40-Bio
T1 construct: Bought protein; also called human FAPα-His protein; not shown: His tag
T1 sequence (looked up): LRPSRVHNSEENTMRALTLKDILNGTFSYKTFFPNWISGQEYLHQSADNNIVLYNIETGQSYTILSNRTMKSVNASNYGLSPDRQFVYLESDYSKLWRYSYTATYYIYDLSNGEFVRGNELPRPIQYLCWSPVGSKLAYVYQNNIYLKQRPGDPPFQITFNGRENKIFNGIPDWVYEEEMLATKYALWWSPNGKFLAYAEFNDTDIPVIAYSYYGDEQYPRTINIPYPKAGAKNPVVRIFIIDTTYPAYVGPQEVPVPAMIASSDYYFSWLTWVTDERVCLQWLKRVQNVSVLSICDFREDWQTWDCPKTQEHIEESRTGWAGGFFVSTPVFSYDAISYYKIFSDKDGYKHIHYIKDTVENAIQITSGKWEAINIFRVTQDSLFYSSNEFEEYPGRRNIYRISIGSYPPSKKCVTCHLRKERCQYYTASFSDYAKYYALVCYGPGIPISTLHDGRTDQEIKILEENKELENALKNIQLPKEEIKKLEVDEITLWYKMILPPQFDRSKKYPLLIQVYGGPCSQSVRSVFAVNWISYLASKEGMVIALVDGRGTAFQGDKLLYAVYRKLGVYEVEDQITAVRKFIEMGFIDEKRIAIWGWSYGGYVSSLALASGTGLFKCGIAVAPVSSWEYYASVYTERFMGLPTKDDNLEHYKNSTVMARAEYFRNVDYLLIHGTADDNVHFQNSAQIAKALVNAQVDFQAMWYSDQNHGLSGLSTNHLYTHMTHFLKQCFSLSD
Protocol: (§1) Briefly, microtiter plates were coated with human FAPα proteins at 0.5 μg/ml in PBS, 100 μl/well at 4° C. overnight, then blocked with 150 μl/well of 1% BSA. Serial dilutions of chimeric antibodies as well as biotin-conjugated reference mAb were added to each well and incubated for 1 hour at RT. The plates were washed with PBS/Tween and then incubate with streptavidin-HRP for 15 mins at RT. After washing, the plates were developed with TMB substrate and analyzed by spectrophotometer at OD 450 nm. According to the competition ability to reference mAbs (Benchmark, or “BMK”), all tested FAPα mAbs binds to the similar epitope as shown in Table 5.

[2] = target: T1, human FAPα-His tag (Sino biological); experiment: competitive ELISA on coated human FAPα; competitor (detected): FAPα (BMK)-Bio
Protocol: as §1

[3] = target: T1, human FAPα-His tag (Sino biological); experiment: competitive ELISA on coated human FAPα; competitor (detected): FAP-I30-Bio
Protocol: as §1

[4] = target: T2, mouse FAPα-His protein (mouse, UniProt P97321 26-761, limits assumed); experiment: ELISA, coated mouse FAPα-His
T2 construct: not shown: His tag
T2 sequence (looked up): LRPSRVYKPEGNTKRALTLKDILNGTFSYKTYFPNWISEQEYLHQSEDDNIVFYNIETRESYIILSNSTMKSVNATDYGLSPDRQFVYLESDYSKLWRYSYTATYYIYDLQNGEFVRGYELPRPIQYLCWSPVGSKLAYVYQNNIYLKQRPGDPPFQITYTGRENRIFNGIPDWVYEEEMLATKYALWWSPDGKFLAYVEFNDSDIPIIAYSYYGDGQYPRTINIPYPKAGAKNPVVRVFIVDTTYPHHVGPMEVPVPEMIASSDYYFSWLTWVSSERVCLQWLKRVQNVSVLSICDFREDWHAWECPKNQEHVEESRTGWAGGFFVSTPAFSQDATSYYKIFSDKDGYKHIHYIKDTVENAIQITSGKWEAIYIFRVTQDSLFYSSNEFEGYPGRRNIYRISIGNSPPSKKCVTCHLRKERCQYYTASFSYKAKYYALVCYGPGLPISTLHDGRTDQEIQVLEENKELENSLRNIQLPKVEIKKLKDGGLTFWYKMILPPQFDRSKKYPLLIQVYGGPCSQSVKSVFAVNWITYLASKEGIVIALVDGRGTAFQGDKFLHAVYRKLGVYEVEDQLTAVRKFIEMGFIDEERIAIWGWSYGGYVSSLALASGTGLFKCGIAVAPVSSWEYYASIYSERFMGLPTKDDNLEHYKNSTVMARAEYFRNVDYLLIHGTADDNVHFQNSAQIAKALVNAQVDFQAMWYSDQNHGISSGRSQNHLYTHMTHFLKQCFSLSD
Protocol: Briefly, microtiter plates were coated with mouse FAPα-His protein at 0.5 ug/ml in PBS, 100 μl/well at 4° C. overnight, then blocked with 150 μl/well of 1% BSA. Three-fold dilutions of tested antibodies starting from 1 μg/ml were added to each well and incubated for 1 hour at 37° C. The plates were washed with PBS/Tween and then incubated with Anti-Human IgG (H&L) (GOAT) Antibody Peroxidase Conjugated for 30 mins at 37° C. After washing, the plates were developed with TMB substrate and analyzed by spectrophotometer at OD 450 nm.

B1: G14 (antibody, V domains shown)
VH: QVQLLESGGGVVQPGRSLRLSCAASGFTFSSYAMHWVRQAPGKGLEWVAFISHDGNRNSYADSVRGRFTISRDNSKNTLYLQMNSLRAEDTAVYYCARDLGYYNGFSYWGQGTLVTVSA
VL: DIVMTQSPSSVSASVGDRVTITCRASQGISSWLAWYQQKPGKAPKLLIYAASSLQSGVPSRFSGSGSGTDFTLTISSLQPEDFATYYCQQANSFPPTFGPGTKVDIK
notes: Full human antibody from a Fab phage library; Tested as a mAb (detected with anti-human IgG, captured on Protein A); also called FAP-G14; FAP-G14-Bio (biotin-conjugated form)
OD 450 nm [1]: 0.293 OD 450 nm | OD 450 nm [2]: 0.399 OD 450 nm | OD 450 nm [3]: 0.241 OD 450 nm

B2: I37 (antibody, V domains shown)
VH: QLQLVESGGGLVQPGGSLRLSCAASGFTFSSYAMSWVRQAPGKGLEWVSAISGSGGSTYYADSVKGRFTISRDNSKNTLYLQMNSLRAEDTAVYYCARDKPWGGSFDYWGQGTLVTVSA
VL: DIQLTQSPSSLSASVGDRVTITCRASQGISSWLAWYQQKPGKAPKLLIYAASSLQSGVPSRFSGSGSGTDFTLTISSLQPEDFATYYCQQANSFPVTFGPGTKVDIK
notes: Tested as a mAb; also called FAP-I37
OD 450 nm [1]: 0.314 OD 450 nm | OD 450 nm [2]: 0.46 OD 450 nm | EC50 [4]: 5.2 ng/mL | OD 450 nm [3]: 0.239 OD 450 nm

B3: J40 (antibody, V domains shown)
VH: EVQLLESGGGLVQPGGSLRLSCAASGFTFSSYAMSWVRQAPGKGLEWVSAISGSGGSTYYADSVKGRFTISRDNSKNTLYLQMNSLRTDDTAVYYCARDLTTSTGWESWGQGTLVTVSA
VL: NIQMTQSPSSVSASVGDRVTITCRASQGISSWLAWYQQKPGKAPKLLIYAASSLQSGVPSRFSGSGSGTDFTLTISSLQPEDFATYYCQQANSFPPTFGQGTKLEIK
notes: Tested as a mAb; also called FAP-J40; FAP-J40-Bio (biotin-conjugated form)
OD 450 nm [1]: 0.261 OD 450 nm | OD 450 nm [2]: 0.343 OD 450 nm | OD 450 nm [3]: 0.218 OD 450 nm

B4: I30 (antibody, V domains shown)
VH: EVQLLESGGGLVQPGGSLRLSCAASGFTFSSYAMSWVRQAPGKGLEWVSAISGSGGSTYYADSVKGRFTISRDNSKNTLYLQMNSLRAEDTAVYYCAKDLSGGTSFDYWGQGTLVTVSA
VL: AIRLTQSPSSVSASVGDRVTITCRASQGISSWLAWYQQKPGKAPKLLIYAASSLQSGVPSRFSGSGSGTDFTLTISSLQPEDFATYYCQQANSFPPTFGGGTKVEIK
notes: Tested as a mAb; also called 130; FAP-I30
OD 450 nm [1]: 0.16 OD 450 nm | OD 450 nm [2]: 0.151 OD 450 nm | OD 450 nm [3]: 0.143 OD 450 nm
